The values below come from article PMC3035457 (Nucleic Acids Research, 2010).

For this test, the target named is T1, MBP-GCM1(167–349) (human, UniProt Q9NP62 167-349).
T1 sequence: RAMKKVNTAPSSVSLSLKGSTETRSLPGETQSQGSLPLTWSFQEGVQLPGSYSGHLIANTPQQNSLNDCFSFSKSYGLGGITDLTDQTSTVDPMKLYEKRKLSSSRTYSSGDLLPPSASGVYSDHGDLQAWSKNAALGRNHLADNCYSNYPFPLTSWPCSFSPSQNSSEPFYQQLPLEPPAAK
The test is described as follows: pull-down.

B1: recombinant DUSP23-FLAG (DUSP23 with a C-terminal FLAG tag) (enzyme)
chain: MGVQPPNFSWVLPGRLAGLALPRLPAHYQFLLDLGVRHLVSLTERGPPHSDSCPGLTLHRLRIPDFCPPAPDQIDRFVQIVDEANARGEAVGVHCALGFGRTGTMLACYLVKERGLAAGDAIAEIRRLRPGSIETYEQEKAVFQFYQRTK
In the case of B1, the binding result was “binds”.
